T1: 4H968-bH
T1 chain: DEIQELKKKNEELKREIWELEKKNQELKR

T2: 4H683-bH
T2 chain: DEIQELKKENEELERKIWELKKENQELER

T3: 4H575-bH
T3 chain: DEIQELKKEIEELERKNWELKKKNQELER

T4: 4H780-bH
T4 chain: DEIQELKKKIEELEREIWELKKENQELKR

T5: 4H4073-bH
T5 chain: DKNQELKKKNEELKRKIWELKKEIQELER

T6: 4H855-bH
T6 chain: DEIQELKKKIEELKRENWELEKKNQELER

T7: 4H797-bH
T7 chain: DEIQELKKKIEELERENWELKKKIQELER

T8: 4H3427-bH
T8 chain: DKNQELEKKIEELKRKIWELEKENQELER

T9: 4H457-bH
T9 chain: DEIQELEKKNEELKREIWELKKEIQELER

T10: 4H754-bH
T10 chain: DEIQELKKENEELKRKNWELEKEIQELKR

T11: 4H953-bA
T11 chain: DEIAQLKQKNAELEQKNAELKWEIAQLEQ

T12: 4H346-bH
T12 chain: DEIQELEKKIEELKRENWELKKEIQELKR

T13: 4H953-bH
T13 chain: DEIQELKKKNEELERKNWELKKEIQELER

T14: 4H3112-bH
T14 chain: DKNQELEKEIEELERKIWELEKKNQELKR

T15: 4H3926-bH
T15 chain: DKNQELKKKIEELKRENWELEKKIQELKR

T16: 4H918-bH
T16 chain: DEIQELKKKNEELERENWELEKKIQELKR

T17: 4H850-bH
T17 chain: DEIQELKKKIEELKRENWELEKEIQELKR

T18: 4H4001-bH
T18 chain: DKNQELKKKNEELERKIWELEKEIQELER

T19: 4H3782-bH
T19 chain: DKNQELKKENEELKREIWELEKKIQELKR

T20: 4H607-bH
T20 chain: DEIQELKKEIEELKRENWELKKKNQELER

T21: 4H3855-bH
T21 chain: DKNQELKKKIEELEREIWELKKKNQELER

T22: 4H687-bH
T22 chain: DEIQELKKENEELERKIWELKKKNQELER

T23: 4H72-bH
T23 chain: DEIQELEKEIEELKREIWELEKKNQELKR

T24: 4H454-bH
T24 chain: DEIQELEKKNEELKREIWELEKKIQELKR

T25: 4H717-bH
T25 chain: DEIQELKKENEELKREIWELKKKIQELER

T26: 4H780-bN
T26 chain: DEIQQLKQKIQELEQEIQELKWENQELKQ

T27: 4H883-bH
T27 chain: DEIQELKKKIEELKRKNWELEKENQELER

T28: 4H967-bH
T28 chain: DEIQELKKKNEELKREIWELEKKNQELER

T29: 4H568-bH
T29 chain: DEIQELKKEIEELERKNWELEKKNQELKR

T30: 4H908-bH
T30 chain: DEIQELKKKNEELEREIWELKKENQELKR


Experiments:
Assay in all cases: two-hybrid library CCNG1;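 also: natural log of median RNA to DNA barcode read ratio; higher means stronger binding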
[1] = molecular target: T1, 4H968-bH
[2] = molecular target: T2, 4H683-bH
[3] = molecular target: T3, 4H575-bH
[4] = molecular target: T4, 4H780-bH
[5] = molecular target: T5, 4H4073-bH
[6] = molecular target: T6, 4H855-bH
[7] = molecular target: T7, 4H797-bH
[8] = molecular target: T8, 4H3427-bH
[9] = molecular target: T9, 4H457-bH
[10] = molecular target: T10, 4H754-bH
[11] = molecular target: T11, 4H953-bA
[12] = molecular target: T12, 4H346-bH
[13] = molecular target: T13, 4H953-bH
[14] = molecular target: T14, 4H3112-bH
[15] = molecular target: T15, 4H3926-bH
[16] = molecular target: T16, 4H918-bH
[17] = molecular target: T17, 4H850-bH
[18] = molecular target: T18, 4H4001-bH
[19] = molecular target: T19, 4H3782-bH
[20] = molecular target: T20, 4H607-bH
[21] = molecular target: T21, 4H3855-bH
[22] = molecular target: T22, 4H687-bH
[23] = molecular target: T23, 4H72-bH
[24] = molecular target: T24, 4H454-bH
[25] = molecular target: T25, 4H717-bH
[26] = molecular target: T26, 4H780-bN
[27] = molecular target: T27, 4H883-bH
[28] = molecular target: T28, 4H967-bH
[29] = molecular target: T29, 4H568-bH
[30] = molecular target: T30, 4H908-bH

Binder | interaction score [1] | interaction score [2] | interaction score [3] | interaction score [4] | interaction score [5] | interaction score [6] | interaction score [7] | interaction score [8] | interaction score [9] | interaction score [10] | interaction score [12] | interaction score [13] | interaction score [15] | interaction score [16] | further results
DKIQELKKKNEELKREIWELEKEIQELKR [4H3010-bH] | 0.0625 | 0.161 | -2.51 | -0.427 | 0.581 | -0.95 | -1.11 | 0.496 | 0.658 | -1.06 | -0.345 | 0.505 | 0.68 | -2.71 | interaction score [11]: -0.817; interaction score [14]: -1.68
DEIQELEKKIEELKRENWELKKEIQELKR [4H346-bH] | -0.466 | -1.17 | -0.18 | 0.0507 | -0.154 | 0.532 | 0.329 | – | 0.311 | -0.0538 | 0.99 | 0.155 | 1.28 | -3.17 | interaction score [17]: -3.53
DKNQELEKKIEELKRKIWELEKENQELER [4H3427-bH] | -0.828 | -0.937 | 1.53 | 0.188 | 0.194 | -0.0661 | -0.726 | 1.13 | -0.153 | -0.851 | -1.08 | -2.3 | -0.169 | -0.345 | interaction score [18]: 0.717; interaction score [19]: -0.106; interaction score [20]: -1.37; interaction score [21]: 0.0459; interaction score [22]: -0.309; interaction score [23]: -0.0186; interaction score [24]: -0.546; interaction score [25]: -0.417; interaction score [26]: -0.425; interaction score [27]: -1.42; interaction score [28]: -1.41; interaction score [29]: -1.66; interaction score [30]: -0.797

Source: paper PMC10397247
